Two molecules from patent publication US20120231006A1 (Amgen, published 2012) can be followed below.

The target of assay [1] is T1, mOrai1-hOrai1 ECL2 chimeric protein (human/mouse chimera, UniProt Q8BWG9 1-304 (mouse entry)).
T1 construct: mouse Orai1 with human ECL2; also called Ch
The experiment in a line: FACS, 293EBNA, RFI-POC grade. Also noted: concentration or dose not given beside the values. From the text: (§1) FIG. 16A-D illustrates the results of FACS analysis showing binding to the indicated mOrai1-hOrai1 ECL2 chimeric mutants expressed on the surface of HEK-293-EBNA cells. Transfected cells were stained first with recombinant monoclonal antibodies then counter-stained with a secondary phycoerythrin-labeled goat (“Gt”) anti-human (“Hu”) IgG F(ab′)₂ antibody fragment and visualized using FACS. In FIG. 16B and FIG. 16D, The values of Relative Fluorescence Intensity as Percent of Control (RFI-POC) are calculated from the relative fluorescence intensity geometric mean (Geo Mean). The geometric mean is an average calculated by multiplying a series of numbers and taking the nth root where n is the number of numbers in the series. It is a statistical average of a set of transformed numbers often used to represent a central tendency in a highly variable data set that minimizes the effects of extreme values.
(§2) Table 11A and Table 11B feature a schematic representation of the POC data from FIG. 16B and FIG. 16D, respectively, where the binding results are recorded as (+++) denoting binding POC from 40% to 100%, (++) for POC of 5% to less than 40%, (+) for POC from 1% to less than 5% and (−) as lack of binding with POC less than 1%.
(In general: A flow cytometer gives signals particle by particle.)

Assay [2] concerns the target T2, mOrai1-hOrai1 ECL2 (VIV) protein (human/mouse chimera, UniProt Q8BWG9 1-304 (mouse entry)).
T2 construct: also called Ch
Put plainly: FACS, 293EBNA, RFI-POC grade. Also noted: concentration or dose not given beside the values.
Text: as §1, §2

Assay [3] concerns the target T3, mOrai1-hOrai1 ECL2 (HSD) protein (human/mouse chimera, UniProt Q8BWG9 1-304 (mouse entry)).
T3 construct: also called Ch
Put plainly: FACS, 293EBNA, RFI-POC grade. On the set-up: concentration or dose not given beside the values.
Text: as §1, §2

For another assay, the target named is T4, human Orai2 (human, UniProt Q96SN7 1-254).
T4 construct: also called hOrai2
The experiment in a line: FACS, 293EBNA transfectants. The protocol:
(§3) Purified monoclonal antibodies from hybridoma supernantants of the subclones derived from initial hits were assessed for binding to human Orai1, Orai2 and Orai3 expressed on HEK-293-EBNA cells along with vector transfected control parental cells. Cells stained with or without primary mAbs were counter-stained with a secondary phycoerythrin-labeled goat (“Gt”) anti-human (“Hu”) IgG F(ab′)₂ antibody fragment and visualized using FACS.
(§4) FACS binding analysis. Transfected 293EBNA cells transiently expressed hOrai1, human Orai2, or human Orai3 (results of binding comparison in FIG. 11A-B), or hOrai1(S218G) (results of binding comparison in FIG. 12A-B); or hOrai1 and hSTIM1; mOrai1 and mouse STIM1; or rat Orai1 and rat STIM1 (results of binding comparison in FIG. 13). The transfected cells were harvested at 48 hours post-transfection. Cells transfected with pcDNA3.1 were used as negative controls. Cells were washed once with ice-cold 1×PBS, resuspended in ice-cold FACS buffer (1×D-PBS+2% goat serum), and 2×10⁵ cells in […] were stained per antibody combination. All antibody incubation steps were performed on ice for 1 hour. […] Next, the unlabelled antibody was detected using goat F(ab′)₂ anti-mouse or anti-human IgG-phycoerythrin (IgG-PE), followed by a wash with 200 μL of ice-cold FACS buffer before flow cytometry analysis. Unstained cells and cells stained with detecting antibodies were used as negative controls. The values of relative level of fluorescence were calculated using FCS Express (De Novo Software) and mean values were calculated using log-transformed data (geometric mean). Purified mAbs were assessed by FACS assay for their ability to specifically bind human Orai1, Orai2 and Orai3 proteins expressed on HEK-293 cells.

A further assay has as its target human Orai3 (human, UniProt Q9BRQ5 1-295). The experiment in a line: FACS, 293EBNA transfectants. The protocol:
as §3, §4

The target in another assay is T5, mouse Orai1 (mouse, UniProt Q8BWG9 1-304).
T5 construct: co-expressed with mouse STIM1; also called mOrai1
The experiment in a line: FACS, 293EBNA transfectants with STIM1, thapsigargin. The protocol: (§5) FIG. 13A-B illustrates the results of FACS analysis showing binding to human Orai1 expressed on the surface of HEK-293-EBNA cells that were treated with 2 μM Thapsigargin. HEK-293-EBNA cells were transiently transfected with human Orai1 and human STIM1, mouse Orai1 and mouse STIM1, rat Orai1 and rat STIM1 and control empty vector. Transfected cells were stained first with recombinant monoclonal antibodies then counter-stained with a secondary phycoerythrin-labeled Gt anti-Hu IgG F(ab′)₂ or Gt anti-Mu IgG F(ab′)₂ antibody fragment, as appropriate, and visualized using FACS.
as §4

For the next assay, the target named is T6, rat Orai1 (rat, UniProt Q5M848 1-304).
T6 construct: co-expressed with rat STIM1; also called rOrai1
The assay is described as above. The protocol: as §5, §4

Assay [4] addresses T7, mOrai1-hOrai1 ECL2 (…) protein (human/mouse chimera, UniProt Q8BWG9 1-304 (mouse entry)).
T7 construct: also called Ch
Put plainly: flow cytometry on HEK-293 cells transfected with the chimera (loss of binding experiment).
T7 sequence (Q8BWG9 other isoform, or with tags, fused parts or gaps): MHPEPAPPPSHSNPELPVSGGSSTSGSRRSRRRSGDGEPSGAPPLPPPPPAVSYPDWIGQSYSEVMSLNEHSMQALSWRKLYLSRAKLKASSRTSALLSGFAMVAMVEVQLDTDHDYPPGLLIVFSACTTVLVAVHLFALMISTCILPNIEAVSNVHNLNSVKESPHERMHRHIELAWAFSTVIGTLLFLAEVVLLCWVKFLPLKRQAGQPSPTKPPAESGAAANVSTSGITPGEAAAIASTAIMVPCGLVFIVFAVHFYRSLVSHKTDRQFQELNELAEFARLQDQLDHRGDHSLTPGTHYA

Assay [5] deals with T8, mOrai1-hOrai1 ECL2 (SPTKPPAE) protein (human/mouse chimera, UniProt Q8BWG9 1-304 (mouse entry)).
T8 construct: also called Ch
The assay is described as above.

Assay [6] deals with T9, mOrai1-hOrai1 ECL2 (KPPAE) protein (human/mouse chimera, UniProt Q8BWG9 1-304 (mouse entry)).
T9 construct: also called Ch
The description is as above.

The target of assay [7] is T10, mOrai1-hOrai1 ECL2 (…) protein (human/mouse chimera, UniProt Q8BWG9 1-304 (mouse entry)).
T10 construct: also called Ch
Described as above. This is another data set of the same source.
T10 sequence (Q8BWG9 other isoform, or with tags, fused parts or gaps): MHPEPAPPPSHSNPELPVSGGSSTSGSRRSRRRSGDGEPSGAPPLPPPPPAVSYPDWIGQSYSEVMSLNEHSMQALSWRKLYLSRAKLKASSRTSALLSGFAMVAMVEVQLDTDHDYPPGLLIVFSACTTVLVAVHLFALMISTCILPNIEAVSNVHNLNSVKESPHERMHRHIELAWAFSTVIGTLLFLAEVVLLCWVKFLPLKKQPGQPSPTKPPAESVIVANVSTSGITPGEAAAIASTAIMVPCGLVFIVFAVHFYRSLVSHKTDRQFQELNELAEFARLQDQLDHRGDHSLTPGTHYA

Assay [8] concerns the target T11, mOrai1-hOrai1 ECL2 (…) protein (human/mouse chimera, UniProt Q8BWG9 1-304 (mouse entry)).
T11 construct: also called Ch
The description is as above. This is another data set of the same source.
T11 sequence (Q8BWG9 other isoform, or with tags, fused parts or gaps): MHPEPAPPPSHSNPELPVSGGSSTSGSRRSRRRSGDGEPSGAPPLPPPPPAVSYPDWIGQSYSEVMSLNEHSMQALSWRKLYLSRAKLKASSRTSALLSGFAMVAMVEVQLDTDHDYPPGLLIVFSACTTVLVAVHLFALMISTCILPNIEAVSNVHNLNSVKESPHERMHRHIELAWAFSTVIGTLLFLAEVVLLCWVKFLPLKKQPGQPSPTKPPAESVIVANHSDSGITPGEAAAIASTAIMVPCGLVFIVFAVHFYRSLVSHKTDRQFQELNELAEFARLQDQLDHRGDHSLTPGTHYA

Assay [9] concerns the target T12, mOrai1-hOrai1 ECL2 (…) protein (human/mouse chimera, UniProt Q8BWG9 1-304 (mouse entry)).
T12 construct: also called Ch
Described as above. This is another data set of the same source.
T12 sequence (Q8BWG9 other isoform, or with tags, fused parts or gaps): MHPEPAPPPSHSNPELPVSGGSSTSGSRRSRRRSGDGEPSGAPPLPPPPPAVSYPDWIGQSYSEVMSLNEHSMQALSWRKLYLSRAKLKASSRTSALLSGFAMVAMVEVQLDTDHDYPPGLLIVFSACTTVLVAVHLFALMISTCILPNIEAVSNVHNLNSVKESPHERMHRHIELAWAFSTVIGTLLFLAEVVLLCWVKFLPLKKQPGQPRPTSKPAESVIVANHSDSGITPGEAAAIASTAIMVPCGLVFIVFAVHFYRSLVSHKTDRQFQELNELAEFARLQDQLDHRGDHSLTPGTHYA

The target in assay [10] is T13, mOrai1-hOrai1 ECL2 (AESVIV) protein (human/mouse chimera, UniProt Q8BWG9 1-304 (mouse entry)).
T13 construct: also called Ch
The assay is described as above.

T9 sequence (Q8BWG9 other isoform, or with tags, fused parts or gaps): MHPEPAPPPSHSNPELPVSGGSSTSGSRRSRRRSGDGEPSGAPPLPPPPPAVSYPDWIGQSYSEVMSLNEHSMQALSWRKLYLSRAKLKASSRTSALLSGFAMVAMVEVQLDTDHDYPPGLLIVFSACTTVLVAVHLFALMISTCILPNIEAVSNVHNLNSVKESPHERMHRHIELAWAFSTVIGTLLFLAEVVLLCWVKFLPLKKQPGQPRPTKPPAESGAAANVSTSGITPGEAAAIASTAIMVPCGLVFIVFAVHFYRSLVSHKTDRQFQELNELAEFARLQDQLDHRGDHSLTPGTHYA
T5 sequence (Q8BWG9 whole entry): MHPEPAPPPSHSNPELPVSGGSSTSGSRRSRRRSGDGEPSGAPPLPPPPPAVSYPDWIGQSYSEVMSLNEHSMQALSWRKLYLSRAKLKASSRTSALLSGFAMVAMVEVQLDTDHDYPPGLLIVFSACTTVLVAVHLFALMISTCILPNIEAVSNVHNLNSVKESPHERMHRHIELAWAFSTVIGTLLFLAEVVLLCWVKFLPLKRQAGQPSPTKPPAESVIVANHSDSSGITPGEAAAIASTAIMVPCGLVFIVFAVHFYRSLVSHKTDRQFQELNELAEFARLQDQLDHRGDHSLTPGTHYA
T4 sequence (Q96SN7 whole entry): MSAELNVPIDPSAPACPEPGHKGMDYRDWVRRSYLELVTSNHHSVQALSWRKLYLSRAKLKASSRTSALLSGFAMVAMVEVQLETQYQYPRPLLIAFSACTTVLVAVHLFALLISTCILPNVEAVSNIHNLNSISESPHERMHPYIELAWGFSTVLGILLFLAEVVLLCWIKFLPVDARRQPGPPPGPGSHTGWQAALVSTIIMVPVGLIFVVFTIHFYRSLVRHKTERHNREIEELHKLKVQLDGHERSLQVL
T2 sequence (Q8BWG9 other isoform, or with tags, fused parts or gaps): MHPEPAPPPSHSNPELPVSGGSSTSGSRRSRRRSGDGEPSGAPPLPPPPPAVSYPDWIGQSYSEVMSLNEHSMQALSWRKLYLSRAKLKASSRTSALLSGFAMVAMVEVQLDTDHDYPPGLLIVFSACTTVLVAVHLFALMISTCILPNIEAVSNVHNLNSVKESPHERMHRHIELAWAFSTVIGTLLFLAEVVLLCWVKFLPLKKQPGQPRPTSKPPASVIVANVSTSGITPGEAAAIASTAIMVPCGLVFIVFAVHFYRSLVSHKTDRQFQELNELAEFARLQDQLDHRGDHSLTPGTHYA
T8 sequence (Q8BWG9 other isoform, or with tags, fused parts or gaps): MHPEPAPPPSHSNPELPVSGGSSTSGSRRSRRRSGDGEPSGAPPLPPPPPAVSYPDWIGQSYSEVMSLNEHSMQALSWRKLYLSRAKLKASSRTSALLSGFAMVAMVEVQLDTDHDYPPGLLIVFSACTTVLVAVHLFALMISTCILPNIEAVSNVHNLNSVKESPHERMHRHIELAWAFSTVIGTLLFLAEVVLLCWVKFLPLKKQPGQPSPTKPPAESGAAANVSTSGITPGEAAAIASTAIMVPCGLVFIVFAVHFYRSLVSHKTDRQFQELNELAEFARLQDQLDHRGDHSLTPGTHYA
T3 sequence (Q8BWG9 other isoform, or with tags, fused parts or gaps): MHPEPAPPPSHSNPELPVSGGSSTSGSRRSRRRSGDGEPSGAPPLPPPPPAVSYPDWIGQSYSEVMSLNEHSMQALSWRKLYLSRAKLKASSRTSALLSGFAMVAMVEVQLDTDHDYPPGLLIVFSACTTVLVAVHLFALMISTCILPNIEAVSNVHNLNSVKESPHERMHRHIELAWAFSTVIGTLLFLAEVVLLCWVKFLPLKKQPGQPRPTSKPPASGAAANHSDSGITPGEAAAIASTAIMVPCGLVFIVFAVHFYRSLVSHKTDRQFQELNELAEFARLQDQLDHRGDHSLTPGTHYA
T6 sequence (Q5M848 whole entry): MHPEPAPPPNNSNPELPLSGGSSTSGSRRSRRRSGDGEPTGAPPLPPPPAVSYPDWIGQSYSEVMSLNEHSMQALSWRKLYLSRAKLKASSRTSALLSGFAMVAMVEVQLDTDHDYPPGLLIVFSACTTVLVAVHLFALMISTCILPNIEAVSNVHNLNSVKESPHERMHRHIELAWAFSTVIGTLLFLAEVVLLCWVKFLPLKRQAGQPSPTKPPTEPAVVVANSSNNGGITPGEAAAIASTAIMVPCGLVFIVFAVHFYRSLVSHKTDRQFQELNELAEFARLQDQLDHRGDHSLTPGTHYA
T13 sequence (Q8BWG9 other isoform, or with tags, fused parts or gaps): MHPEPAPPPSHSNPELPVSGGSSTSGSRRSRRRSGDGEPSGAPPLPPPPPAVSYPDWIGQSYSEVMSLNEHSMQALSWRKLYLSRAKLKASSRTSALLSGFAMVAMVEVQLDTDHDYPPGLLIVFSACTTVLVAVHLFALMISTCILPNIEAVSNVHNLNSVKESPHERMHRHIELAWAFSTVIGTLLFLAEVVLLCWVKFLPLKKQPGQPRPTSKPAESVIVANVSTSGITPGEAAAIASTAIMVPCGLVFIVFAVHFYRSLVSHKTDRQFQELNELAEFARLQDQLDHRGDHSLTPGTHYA
T1 sequence (Q8BWG9 other isoform, or with tags, fused parts or gaps mutant): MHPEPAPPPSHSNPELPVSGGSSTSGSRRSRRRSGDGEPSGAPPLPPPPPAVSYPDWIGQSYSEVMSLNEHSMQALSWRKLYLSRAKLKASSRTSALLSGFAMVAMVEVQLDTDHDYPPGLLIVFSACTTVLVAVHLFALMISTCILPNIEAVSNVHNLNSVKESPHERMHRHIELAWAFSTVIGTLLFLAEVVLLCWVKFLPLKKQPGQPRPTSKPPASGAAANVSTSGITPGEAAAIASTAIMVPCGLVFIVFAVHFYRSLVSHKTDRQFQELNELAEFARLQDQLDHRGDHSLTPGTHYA

B1: mAb 5B5.2 (antibody, human IgG2, lambda, V domains shown)
VH: QVQLVQSGAEVKKPGASVKVSCKASGYTFTDYYINWVRQAPGQGLEWMGWINPNSGGTDYAQKFQGRVTMTRDTSIRTAYMELNRLTSDDTAVYYCAREYGGYEDWFDPWGQGTLVTVSS
VL: QSVLTQPPSVSGAPGQRVTISCTGSNSNIGAGFDVHWYQQLPGTVPKLLIYGNNNRPSGVPDRFSGSKSGTSASLAITGLQAEDEADYYCQSYDSRLTVFGGGTKLTVLG
notes: fully human IgG2 lambda, Campaign 2; same chains as 5B5.1
With B1, the “POC (percent of control, FACS Geo Mean relative to binding to Ch. 1)” value in assay [1], in assay [2] and in [3] was 40 to 100% throughout. Also, the binding result is reported as “no binding (tested: 1 µg)” with human Orai2; “no binding (tested: 1 µg)” with human Orai3; “no binding (tested: 1 µg)” with mouse Orai1; “no binding (tested: 1 µg)” with rat Orai1; “no binding” in assay [4]; “no binding” in assay [5]. For the same molecule, the binding result in assay [6], in assay [7], in assay [8], in assay [9] and in [10] was “no binding” in each case.

B2: mAb 5A1.1 (antibody, human IgG2)
heavy: QVQLVQSGAEVKKPGASVKVPCKASGYTFTDYYINWVRQAPGQGLEWMGWINPNNGGTNYAQKFQGRVTMTRDTSISTAYMELRRLRSDDTAVYYCARERGGYEDWFDPWGQGTLVTVSSASTKGPSVFPLAPCSRSTSESTAALGCLVKDYFPEPVTVSWNSGALTSGVHTFPAVLQSSGLYSLSSVVTVPSSNFGTQTYTCNVDHKPSNTKVDKTVERKCCVECPPCPAPPVAGPSVFLFPPKPKDTLMISRTPEVTCVVVDVSHEDPEVQFNWYVDGVEVHNAKTKPREEQFNSTFRVVSVLTVVHQDWLNGKEYKCKVSNKGLPAPIEKTISKTKGQPREPQVYTLPPSREEMTKNQVSLTCLVKGFYPSDIAVEWESNGQPENNYKTTPPMLDSDGSFFLYSKLTVDKSRWQQGNVFSCSVMHEALHNHYTQKSLSLSPGK
VL: QSVLTQPPSVSGAPGQRVTISCTGSSSNIGAGFDVHWYQQLPVTAPKLLIYGNRNRPSGVPARFSGSKSGTSASLAITGLQAEDEAVYYCQSYDSSLTVFGGGTKLTVL
notes: fully human, Campaign 2; lambda CL-1
For the molecule B2, the “POC (percent of control, FACS Geo Mean relative to binding to Ch. 1)” value in [1], in [2] and in assay [3] was 40 to 100% each time. Moreover, the binding result with human Orai2 is reported as “no binding (tested: 1 µg)”; in the assay with human Orai3, “no binding (tested: 1 µg)”; with mouse Orai1, “no binding (tested: 1 µg)”; in the assay with rat Orai1, “no binding (tested: 1 µg)”; in [4] it was “no binding”; in [5], “no binding”. Besides, the binding result in assay [6], in [7], in assay [8], in assay [9] and in assay [10] was “no binding” throughout.
